Experimental data: publication PMC3444665 (Virology, 2012)
Substitutions are numbered along the chain they refer to.

Tests used:
Assay in all cases: pull-down
GST-Agno (F31A) = target: T1, GST-Agno (F31A) (JC virus (JCV Mad-1), UniProt P03086 1-71, F31A)
T1 sequence: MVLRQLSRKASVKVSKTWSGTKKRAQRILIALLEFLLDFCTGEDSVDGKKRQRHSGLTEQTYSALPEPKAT

GST-Agno (F35A) = target: T2, GST-Agno (F35A) (JC virus (JCV Mad-1), UniProt P03086 1-71, F35A)
T2 sequence: T1 sequence with A31F, F35A

GST-Agno (F39A) = target: T3, GST-Agno (F39A) (JC virus (JCV Mad-1), UniProt P03086 1-71, F39A)
T3 sequence: T1 sequence with A31F, F39A

Measured: fold decrease of the interaction against WT agnoprotein

B1: JCV large T-antigen in whole-cell extracts of HJC-15b cells (natural protein)
chain: MDKVLNREESMELMDLLGLDRSAWGNIPVMRKAYLKKCKELHPDKGGDEDKMKRMNFLYKKMEQGVKVAHQPDFGTWNSSEVPTYGTDEWESWWNTFNEKWDEDLFCHEEMFASDDENTGSQHSTPPKKKKKVEDPKDFPVDLHAFLSQAVFSNRTVASFAVYTTKEKAQILYKKLMEKYSVTFISRHGFGGHNILFFLTPHRHRVSAINNYCQKLCTFSFLICKGVNKEYLFYSALCRQPYAVVEESIQGGLKEHDFNPEEPEETKQVSWKLVTQYALETKCEDVFLLMGMYLDFQENPQQCKKCEKKDQPNHFNHHEKHYYNAQIFADSKNQKSICQQAVDTVAAKQRVDSIHMTREEMLVERFNFLLDKMDLIFGAHGNAVLEQYMAGVAWIHCLLPQMDTVIYDFLKCIVLNIPKKRYWLFKGPIDSGKTTLAAALLDLCGGKSLNVNMPLERLNFELGVGIDQFMVVFEDVKGTGAESRDLPSGHGISNLDCLRDYLDGSVKVNLERKHQNKRTQVFPPGIVTMNEYSVPRTLQARFVRQIDFRPKAYLRKSLSCSEYLLEKRILQSGMTLLLLLIWFRPVADFAAAIHERIVQWKERLDLEISMYTFSTMKANVGMGRPILDFPREEDSEAEDSGHGSSTESQSQCFSQVSEASGADTQENCTFHICKGFQCFKKPKTPPPK
> 3 fold: GST-Agno (F31A) | GST-Agno (F35A) | GST-Agno (F39A)
